B1: E3 ubiquitin-protein ligase COP1 (Arabidopsis thaliana (Mouse-ear cress)), P43254 (parent)
chain: MEEISTDPVVPAVKPDPRTSSVGEGANRHENDDGGSGGSEIGAPDLDKDLLCPICMQIIKDAFLTACGHSFCYMCIITHLRNKSDCPCCSQHLTNNQLYPNFLLDKLLKKTSARHVSKTASPLDQFREALQRGCDVSIKEVDNLLTLLAERKRKMEQEEAERNMQILLDFLHCLRKQKVDELNEVQTDLQYIKEDINAVERHRIDLYRARDRYSVKLRMLGDDPSTRNAWPHEKNQIGFNSNSLSIRGGNFVGNYQNKKVEGKAQGSSHGLPKKDALSGSDSQSLNQSTVSMARKKRIHAQFNDLQECYLQKRRQLADQPNSKQENDKSVVRREGYSNGLADFQSVLTTFTRYSRLRVIAEIRHGDIFHSANIVSSIEFDRDDELFATAGVSRCIKVFDFSSVVNEPADMQCPIVEMSTRSKLSCLSWNKHEKNHIASSDYEGIVTVWDVTTRQSLMEYEEHEKRAWSVDFSRTEPSMLVSGSDDCKVKVWCTRQEASVINIDMKANICCVKYNPGSSNYIAVGSADHHIHYYDLRNISQPLHVFSGHKKAVSYVKFLSNNELASASTDSTLRLWDVKDNLPVRTFRGHTNEKNFVGLTVNSEYLACGSETNEVYVYHKEITRPVTSHRFGSPDMDDAEEEAGSYFISAVCWKSDSPTMLTANSQGTIKVLVLAA
partner: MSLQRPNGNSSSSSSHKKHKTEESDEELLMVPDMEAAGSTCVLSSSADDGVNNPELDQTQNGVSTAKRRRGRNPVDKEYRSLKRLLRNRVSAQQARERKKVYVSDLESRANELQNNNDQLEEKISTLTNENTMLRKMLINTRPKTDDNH
B2: Transcription factor HY5-like (Arabidopsis thaliana (Mouse-ear cress)), Q8W191-1 (parent)
chain: B1 partner
partner: B1 chain

One test covers variants of B1. The following applies: with HYH, Q8W191-1.
In the case of R465E, the “effect of a mutation on the interaction” value is on record as “decreasing interaction”.
The same measure, in the same setting: for G524E the value was “decreasing interaction”.
For the variant K422E, the “effect of a mutation on the interaction” value was “decreasing interaction”.
In the case of W467A, the “effect of a mutation on the interaction” value is “decreasing interaction”.
Consider K550E, for which the “effect of a mutation on the interaction” value was “decreasing interaction”.

The variants in the next test derive from B2. The note with it: with cop1_arath COP1, P43254.
Turning to V31A;P32A, the “effect of a mutation on the interaction” value was “decreasing interaction”.

These data come from IntAct's records for PubMed 12023303.
